The target in test [1] is T1, GLP-1 receptor (GLP-1R) on rat insulinoma RINm5F cells (rat (RINm5F rat insulinoma cells), UniProt P32301 22-463).
T1 construct: whole, on cells; also called GLP-R
T1 sequence (looked up): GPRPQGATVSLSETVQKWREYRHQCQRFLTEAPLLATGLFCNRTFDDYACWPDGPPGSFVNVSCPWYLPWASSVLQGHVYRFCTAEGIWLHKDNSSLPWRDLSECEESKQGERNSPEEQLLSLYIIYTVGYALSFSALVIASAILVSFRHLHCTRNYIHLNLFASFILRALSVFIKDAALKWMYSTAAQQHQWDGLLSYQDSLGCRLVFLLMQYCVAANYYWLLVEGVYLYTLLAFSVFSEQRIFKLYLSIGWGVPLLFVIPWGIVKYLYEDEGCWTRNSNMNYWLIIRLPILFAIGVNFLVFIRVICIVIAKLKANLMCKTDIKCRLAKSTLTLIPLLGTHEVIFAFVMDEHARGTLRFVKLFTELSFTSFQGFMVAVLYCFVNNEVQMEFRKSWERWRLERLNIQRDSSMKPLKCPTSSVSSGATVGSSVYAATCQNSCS
Description: immunofluorescence staining of RINm5F cells (GLP-1R expressing) after 30 min at 37 °C, detected with rabbit polyclonal anti-calbindin D9k. The method, then: The cells were extensively washed after 30 min treatments under 37° C. in microscopic chamber slides and subsequently fixed. […] The light shading represents antibody staining.
It is well known that GLP-1R is expressed in RINm5F but not in CHO cells. […] Similar binding analyses were carried out with RINm5F cells and a […] (αTC1).

Test [2] addresses T1, GLP-1 receptor (GLP-1R) on rat …. Description: cell-based or functional assay.

This is an account of results in US20120244080A1 (GEORGIA STATE UNIVERSITY RESEARCH FOUNDATION, published 2012).

B1: Human Calbindin D9k (other)
chain: STKKSPEELKRIFEKYAAKEGDPDQLSKDELKLLIQAEFPSLLKGPNTLDDLFQELDKNGDGEVSFEEFQVLVKKISQ
notes: Negative control and parental host protein
B1: the binding result in test [1] was “no binding (tested: 50 µM)”.

B2: Fusion Protein Cal.GLP (human Calbindin D9k-GLP-1 fusion protein) (designed binder)
chain: MSTKKSPEELKRIFEKYAAKEGDPDQLSKDELKLLIQAEFPSLLKGPNTLDDLFQELDKNGHAEGTFTSDVSSYLEGQAAKEFIAWLVKGRG
As for B2, the “intracellular cAMP level in rat insulinoma RINm5F cells (Lance cAMP 384 kit), IC50” value in test [2] was approximately 20 nM.
